Measured values from patent US20110274691A1 (Amgen, published 2011).
Substitutions are numbered along the chain they refer to. One block for each binder: values may come before it.

Experiments:
[1] = target: T1, ferroportin-V5 (human, UniProt Q9NP59 1-571); test: cell-based or functional assay
T1 sequence: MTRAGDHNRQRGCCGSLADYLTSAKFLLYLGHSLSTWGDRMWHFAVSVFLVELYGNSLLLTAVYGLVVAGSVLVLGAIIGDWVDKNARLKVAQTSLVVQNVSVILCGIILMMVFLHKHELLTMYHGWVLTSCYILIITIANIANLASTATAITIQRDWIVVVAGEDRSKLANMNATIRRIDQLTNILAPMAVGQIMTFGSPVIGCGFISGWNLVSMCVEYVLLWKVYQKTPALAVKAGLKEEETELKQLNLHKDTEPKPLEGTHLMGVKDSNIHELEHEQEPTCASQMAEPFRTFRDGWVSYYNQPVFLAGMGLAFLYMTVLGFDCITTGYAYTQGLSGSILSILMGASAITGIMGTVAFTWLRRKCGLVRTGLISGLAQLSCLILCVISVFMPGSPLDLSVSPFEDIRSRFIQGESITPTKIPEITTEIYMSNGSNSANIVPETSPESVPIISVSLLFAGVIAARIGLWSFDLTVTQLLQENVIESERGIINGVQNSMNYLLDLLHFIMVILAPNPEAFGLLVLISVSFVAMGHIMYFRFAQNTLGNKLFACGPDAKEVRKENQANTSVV

[2] = target: T2, human ferroportin (human, UniProt Q9NP59 1-571); test: cell-based or functional assay
T2 sequence: T1 sequence

[3] = target: T3, ferroportin fragment RDGWVSYYNQ (amino acids 296-305 of SEQ ID NO: 16) (human); test: PepSpot peptide array, 1 ug/mL antibody
T3 construct: PepSpot array of overlapping 10-mers on cellulose membrane
T3 peptide: RDGWVSYYNQ
Excerpt: (§1) The PepSpot technique (Heiskanen et al., Virology, 262:321-332, 1999) was used to identify the binding epitopes on ferroportin for human antibodies 37A2, 37B9, 37C8, 37G8, 38A4, 38C8, 38D2, 38E3 and 38G6. Briefly, an array of overlapping 10-mer peptides was synthesized on a cellulose membrane by a solid phase peptide synthesis spotting method. These peptide sequences were derived from amino acids 1-571 of SEQ ID NO: 16. The array was then soaked in 0.05% Tween-20/PBS (PBS-T), blocked with 5% BSA in PBS-T for 3 hours at room temperature and subsequently washed three times with PBS-T. The prepared array was then incubated for 90 minutes at room temperature with 1 μg/mL solution of antibodies 37A2, 37B9, 37C8, 37G8, 38A4, 38C8, 38D2, 38E3 or 38G6 in 5% nonfat dry milk. After binding, the membrane was washed three times with PBS-T and subsequently incubated for 1 hour at room temperature with a goat anti-human light chain antibody conjugated to horseradish peroxidase diluted 1:50,000 in 5% nonfat dry milk. The membrane was then washed three times with PBS-T and any binding was determined using chemiluminescence detection on X-ray film.
(§2) Antibodies 37A2, 37B9, 37C8, 37G8, 38A4, 38C8, 38D2, 38E3 and 38G6 bound to epitopes within, overlapping or near loops 1, 2, 3 and 4 of the ferroportin sequence set forth in FIG. 1A.

[4] = target: T4, ferroportin fragment YHGWVLTSCY (amino acids 124-133 of SEQ ID NO: 16) (human); test: PepSpot peptide array, 1 ug/mL antibody
T4 construct: PepSpot array of overlapping 10-mers on cellulose membrane
T4 peptide: YHGWVLTSCY
Excerpt: as §1, §2

[5] = target: T5, ferroportin fragment AFLYMTVLGF (amino acids 315-324 of SEQ ID NO: 16) (human); test: PepSpot peptide array, 1 ug/mL antibody
T5 construct: PepSpot array of overlapping 10-mers on cellulose membrane
T5 peptide: AFLYMTVLGF
Excerpt: as §1, §2

[6] = target: T6, ferroportin fragment SITPTKIPEI (amino acids 417-426 of SEQ ID NO: 16) (human); test: PepSpot peptide array, 1 ug/mL antibody
T6 construct: PepSpot array of overlapping 10-mers on cellulose membrane
T6 peptide: SITPTKIPEI
Excerpt: as §1, §2

[7] = target: T7, ferroportin fragment ITTEIYMSNGSNS (amino acids 426-438 of SEQ ID NO: 16) (human); test: PepSpot peptide array, 1 ug/mL antibody
T7 construct: Stretch covered by several overlapping 10-mers of the PepSpot array; 13 residues as printed
T7 peptide: ITTEIYMSNGSNS
Excerpt: as §1, §2

[8] = target: T8, ferroportin fragment TEIYMSNGSNSA (amino acids 428-439 of SEQ ID NO: 16) (human); test: PepSpot peptide array, 1 ug/mL antibody
T8 construct: Stretch covered by several overlapping 10-mers of the PepSpot array; 12 residues as printed
T8 peptide: TEIYMSNGSNSA
Excerpt: as §1, §2

[9] = target: T9, ferroportin peptide Fc conjugate 2 (Peptide 2: ITIQRDWIVVVAGEDRSKLANMNATIRRIDQL, amino acids 152-183 of SEQ … (human)); test: Western blot of peptide-Fc conjugates
T9 construct: not shown: Fc moiety
T9 chain: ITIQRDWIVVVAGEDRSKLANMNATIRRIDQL
Procedure: (§3) 31A5 was then tested by Western analysis for its ability to recognize a panel of ferroportin peptide-Fc conjugates, where the peptide moiety was derived from different, non-overlapping regions of the ferroportin sequence. 500 ng of ferroportin peptide Fc conjugates 1-5 (Peptide 1: […], amino acids 75-96 of SEQ ID NO: 16; Peptide 2: […], amino acids 152-183 of SEQ ID NO: 16; Peptide 3: […], amino acids 330-338 of SEQ ID NO: 16; Peptide 4: […], amino acids 393-446 of SEQ ID NO: 16; and Peptide 5: […], amino acids: 542-571 of SEQ ID NO: 16) were run on a NuPAGE 4-12% gel, transferred to a nitrocellulose membrane and probed using […] 31A5 followed by an anti-mouse secondary antibody.

[10] = target: T10, ferroportin peptide Fc conjugate 5 (Peptide 5: AQNTLGNKLFACGPDAKEVRKENQANTSVV, amino acids 542-571 of SEQ ID … (human)); test: Western blot of peptide-Fc conjugates
T10 construct: not shown: Fc moiety
T10 chain: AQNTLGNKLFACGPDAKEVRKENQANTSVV
Procedure: as §3

[11] = target: T11, ferroportin peptide sequence ANIVPETSPES (residues 439-449 of SEQ ID NO: 16) (human); test: binding to 7-10 amino acid peptides immobilized on cellulose membrane
T11 peptide: ANIVPETSPES
Excerpt: None of the other ferroportin-binding antibodies bound appreciably to this peptide. The location of the 31A5 epitope was further narrowed by detecting binding to ferroportin peptides ranging in length from 7 to 10 amino acids immobilized on a cellulose membrane. […] Cysteine residue 326 of SEQ ID NO: 16 is located in a different extracellular loop from the loop containing the 31A5 epitope (i.e., loop 3 of FIG. 1A).

preserved ferroportin activity (ferroportin-V5 fluorescence after 37 nM hepcidin), IC50 [1]: 5.4 nM
decreased intracellular concentration of iron (IRE beta-lactamase reporter, 293/Fpn/BLA cells, 36 nM hepcidin), IC50 [2]: 10 nM
binding result [3]: binds
binding result [4]: binds
B1: antibody 38D2 (antibody, V domains shown)
VH: QVQLVQSGAEVKKPGASVKVSCKASGYTLTGYYLHWVRQAPGQELEWMGWINPFTGATDYAQKFQGRVTMTRDTSINTAHMELSRLRSDDTAVYYCARDPSLQNSYHYYVMDVWGQGTTVTVSS
VL: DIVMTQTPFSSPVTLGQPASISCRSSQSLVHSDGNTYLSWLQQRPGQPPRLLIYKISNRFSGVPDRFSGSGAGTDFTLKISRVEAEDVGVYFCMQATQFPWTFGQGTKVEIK

decreased intracellular concentration of iron (IRE beta-lactamase reporter, 293/Fpn/BLA cells, 36 nM hepcidin), IC50 [2]: 15 nM
binding result [5]: binds
B2: antibody 38E3 (antibody, V domains shown)
VH: QVQLVQSGAEVKKPGSSVKVSCKASGYTLTGYYMHWVRQAPGQGLEWMGWINPHTGGKNYAQKFQGRVTLTRDTSISTAYMELNSLRSDDTAVYYCARDPSLSVTGPSFYYYGLDVWGQGTTVTVSS
VL: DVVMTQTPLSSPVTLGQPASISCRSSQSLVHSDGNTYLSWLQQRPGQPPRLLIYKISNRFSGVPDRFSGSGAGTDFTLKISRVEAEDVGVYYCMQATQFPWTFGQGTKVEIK

preserved ferroportin activity (ferroportin-V5 fluorescence after 37 nM hepcidin), IC50 [1]: 0.2 nM
decreased intracellular concentration of iron (IRE beta-lactamase reporter, 293/Fpn/BLA cells, 36 nM hepcidin), IC50 [2]: 0.8 nM
binding result [5]: binds
B3: antibody 37C8 (antibody, V domains shown)
VH: B2 VH with S77N, S85T, L102I, S103A, T105A
VL: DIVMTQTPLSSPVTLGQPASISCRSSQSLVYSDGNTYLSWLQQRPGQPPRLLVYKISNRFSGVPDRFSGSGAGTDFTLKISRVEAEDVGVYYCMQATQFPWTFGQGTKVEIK

preserved ferroportin activity (ferroportin-V5 fluorescence after 37 nM hepcidin), IC50 [1]: 0.8 nM
decreased intracellular concentration of iron (IRE beta-lactamase reporter, 293/Fpn/BLA cells, 36 nM hepcidin), IC50 [2]: 1.6 nM
binding result [5]: binds
B4: antibody 37G8 (antibody, V domains shown)
VH: B2 VH with S77N, S85T, S103V
VL: DIVMTQTPLSSPVTHGQPASISCRSSQSLVHSDGNTYLSWLQQRPGQPPRLLIYKISNRLSGVPDRFSGSGTGTDFTLKISRVEAEDVGVYVCMQATQFPWTFGQGTKVEIK

preserved ferroportin activity (ferroportin-V5 fluorescence after 37 nM hepcidin), IC50 [1]: 0.3 nM
decreased intracellular concentration of iron (IRE beta-lactamase reporter, 293/Fpn/BLA cells, 36 nM hepcidin), IC50 [2]: 0.9 nM
binding result [5]: binds
B5: antibody 38C8 (antibody, V domains shown)
VH: B2 VH with A61G, S77N, L102I, T105A, Y112F
VL: not shown

preserved ferroportin activity (ferroportin-V5 fluorescence after 37 nM hepcidin), IC50 [1]: 0.2 nM
decreased intracellular concentration of iron (IRE beta-lactamase reporter, 293/Fpn/BLA cells, 36 nM hepcidin), IC50 [2]: 3.6 nM
binding result [5]: binds
B6: antibody 37B9 (antibody, V domains shown)
VH: B2 VH with K63R, I76V, S77N, S85T, S103V
VL: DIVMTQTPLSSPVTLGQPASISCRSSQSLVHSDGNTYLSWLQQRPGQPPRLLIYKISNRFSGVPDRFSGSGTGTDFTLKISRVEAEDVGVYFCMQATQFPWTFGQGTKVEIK

preserved ferroportin activity (ferroportin-V5 fluorescence after 37 nM hepcidin), IC50 [1]: 2.5 nM
decreased intracellular concentration of iron (IRE beta-lactamase reporter, 293/Fpn/BLA cells, 36 nM hepcidin), IC50 [2]: 4.5 nM
binding result [6]: binds
B7: antibody 37A2 (antibody, V domains shown)
VH: QVQLVESGGGVVQPGRSLRLSCAASGFTFSGYGMHWVRQAPGRGLEWVAVIWPDGTNKYYADSVKGRFTISRDNSKNKLYLQMNSLRAEDTAVYYCARGGATAVFGMNVWGQGTTVTVSS
VL: SYELTQPPSVSVSPGQTARITCSGDELPKQYAYWYQQKAGQAPVMVIHKDSERPSGIPERFSGSSAGTIVTLTISGVQAEDEADYYCQSPDSRRTVIFGGGTKLTVL

preserved ferroportin activity (ferroportin-V5 fluorescence after 37 nM hepcidin), IC50 [1]: 2.8 nM
decreased intracellular concentration of iron (IRE beta-lactamase reporter, 293/Fpn/BLA cells, 36 nM hepcidin), IC50 [2]: 0.4 nM
binding result [7]: binds
B8: antibody 38A4 (antibody, V domains shown)
VH: EVQLLESGGGLVQPGGSLRLSCAASGFTFSSFAMTWVRQAPGKGLEWVSAIGGSGRNTYYADSVKGRFTISRDNSKNTLYLQMSSLRAEDTAVYYCAKEGAMARPPRGLDVWGQGTTVTVSS
VL: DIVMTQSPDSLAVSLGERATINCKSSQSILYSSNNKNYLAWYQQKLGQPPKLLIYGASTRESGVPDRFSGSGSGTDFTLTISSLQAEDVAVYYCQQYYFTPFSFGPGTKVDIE

preserved ferroportin activity (ferroportin-V5 fluorescence after 37 nM hepcidin), IC50 [1]: 1.9 nM
decreased intracellular concentration of iron (IRE beta-lactamase reporter, 293/Fpn/BLA cells, 36 nM hepcidin), IC50 [2]: 4.3 nM
binding result [8]: binds
B9: antibody 38G6 (antibody, V domains shown)
VH: EVQVVESGGGLVQPGGSLRLSCAASGFTFSSYSVNWVRQAPGKGLEWVSYISGSSSTVHYADSVKGRFTISRDTAKNSVYLQLNSLRDEDTALYYCARWGTRQGHYFGMDVWGQGTTVTVSS
VL: QPVLTQPPSASASLGASVTLTCTLSSGYNNYKVDWFQQRPGRGPRFVMRVGTGGIVGSKGDGIPDRFSVLGSGLNRYLTIKNIQEEDESDYHCGADHASGNNFVYVFGTGTKVTVL

decreased intracellular concentration of iron (IRE beta-lactamase reporter, 293/Fpn/BLA cells, 36 nM hepcidin), IC50 [2]: 30 nM
binding result [9]: no binding
binding result [10]: no binding
binding result [11]: binds
B10: anti-ferroportin antibody 31A5 (antibody, V domains shown)
VH: QVQLQQSGAELARPGASVKLSCKASGYTFTSYGISWVKQRTGQGLEWIGEIYPRSGNAYYNEKFKVKATLTIDKSSSTAYMELRSLTSEDSAVYFCGGNYYWGQGTTLTVSS
VL: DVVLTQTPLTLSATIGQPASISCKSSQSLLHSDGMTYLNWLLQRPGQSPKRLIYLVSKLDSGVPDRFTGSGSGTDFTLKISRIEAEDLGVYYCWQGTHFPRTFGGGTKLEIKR
notes: the ends of the mature chains (466, 239) are printed in CLM-00028; also called monoclonal 31A5; mouse anti-human ferroportin antibody
